Values belong to the substance of their own block, whether it stands above or below them.
Tests used:
[1] = biological target: UDP-glucose: glycoprotein glucosyltransferase 1 (UniProt Q9NYU2); assay: IP-MS with Flag tagged ATPIF1 as bait, no antimycin
[2] = biological target: 60 kDa heat shock protein, mitochondrial (UniProt P10809); assay: as above
[3] = biological target: ATP synthase subunit b, mitochondrial precursor (UniProt P24539); assay: as above
[4] = biological target: ATPase inhibitor, mitochondria; isoform 1 (UniProt Q9UII2); assay: as above
[5] = biological target: mitochondrial-processing peptidase subunit beta (UniProt O75439); assay: as above
[6] = biological target: ATP synthase subunit gamma, isoform L (UniProt P36542); assay: as above
[7] = biological target: mitochondrial-processing peptidase subunit alpha (UniProt Q10713); assay: as above
[8] = biological target: ATP synthase subunit g, mitochondrial (UniProt O75964); assay: as above
[9] = biological target: ATP synthase subunit d, mitochondrial isoform a (UniProt O75947); assay: as above
[10] = biological target: ATP synthase subunit alpha (UniProt P25705); assay: as above
protein zyg-11 homolog B [11] = biological target: protein zyg-11 homolog B (UniProt Q9C0D3); assay: as above
[12] = biological target: ATP synthase subunit beta (UniProt P06576); assay: as above
[13] = biological target: ATP synthase subunit O, mitochondrial precursor (UniProt P48047); assay: as above
[14] = biological target: ornithine aminotransferase (UniProt P04181); assay: as above
[15] = biological target: UDP-glucose: glycoprotein glucosyltransferase 1 (UniProt Q9NYU2); assay: IP-MS, FLAG-OMP25TM bait (control)
[16] = biological target: 60 kDa heat shock protein, mitochondrial (UniProt P10809); assay: IP-MS, FLAG-OMP25TM bait (control)
[17] = biological target: ATP synthase subunit b, mitochondrial precursor (UniProt P24539); assay: IP-MS, FLAG-OMP25TM bait (control)
[18] = biological target: ATPase inhibitor, mitochondria; isoform 1 (UniProt Q9UII2); assay: IP-MS, FLAG-OMP25TM bait (control)
[19] = biological target: mitochondrial-processing peptidase subunit beta (UniProt O75439); assay: IP-MS, FLAG-OMP25TM bait (control)
[20] = biological target: ATP synthase subunit gamma, isoform L (UniProt P36542); assay: IP-MS, FLAG-OMP25TM bait (control)
[21] = biological target: mitochondrial-processing peptidase subunit alpha (UniProt Q10713); assay: IP-MS, FLAG-OMP25TM bait (control)
[22] = biological target: ATP synthase subunit g, mitochondrial (UniProt O75964); assay: IP-MS, FLAG-OMP25TM bait (control)
[23] = biological target: ATP synthase subunit d, mitochondrial isoform a (UniProt O75947); assay: IP-MS, FLAG-OMP25TM bait (control)
[24] = biological target: ATP synthase subunit alpha (UniProt P25705); assay: IP-MS, FLAG-OMP25TM bait (control)
protein zyg-11 homolog B [25] = biological target: protein zyg-11 homolog B (UniProt Q9C0D3); assay: IP-MS, FLAG-OMP25TM bait (control)
[26] = biological target: ATP synthase subunit beta (UniProt P06576); assay: IP-MS, FLAG-OMP25TM bait (control)
[27] = biological target: ATP synthase subunit O, mitochondrial precursor (UniProt P48047); assay: IP-MS, FLAG-OMP25TM bait (control)
[28] = biological target: ornithine aminotransferase (UniProt P04181); assay: IP-MS, FLAG-OMP25TM bait (control)

Sequence of mitochondrial-processing peptidase subunit beta (O75439 44-489 limits assumed): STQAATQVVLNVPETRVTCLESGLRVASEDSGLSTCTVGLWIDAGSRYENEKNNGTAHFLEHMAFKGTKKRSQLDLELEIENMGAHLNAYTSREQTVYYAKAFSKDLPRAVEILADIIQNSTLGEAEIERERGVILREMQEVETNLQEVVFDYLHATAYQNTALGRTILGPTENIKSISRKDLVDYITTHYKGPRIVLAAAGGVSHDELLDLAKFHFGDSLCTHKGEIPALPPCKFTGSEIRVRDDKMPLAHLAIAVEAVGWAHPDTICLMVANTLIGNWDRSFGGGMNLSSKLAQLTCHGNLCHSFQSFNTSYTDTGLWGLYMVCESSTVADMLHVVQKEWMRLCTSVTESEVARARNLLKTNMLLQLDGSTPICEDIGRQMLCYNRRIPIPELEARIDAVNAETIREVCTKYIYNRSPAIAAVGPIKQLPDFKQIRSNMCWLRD
Sequence of ornithine aminotransferase (P04181 26-439 limits assumed): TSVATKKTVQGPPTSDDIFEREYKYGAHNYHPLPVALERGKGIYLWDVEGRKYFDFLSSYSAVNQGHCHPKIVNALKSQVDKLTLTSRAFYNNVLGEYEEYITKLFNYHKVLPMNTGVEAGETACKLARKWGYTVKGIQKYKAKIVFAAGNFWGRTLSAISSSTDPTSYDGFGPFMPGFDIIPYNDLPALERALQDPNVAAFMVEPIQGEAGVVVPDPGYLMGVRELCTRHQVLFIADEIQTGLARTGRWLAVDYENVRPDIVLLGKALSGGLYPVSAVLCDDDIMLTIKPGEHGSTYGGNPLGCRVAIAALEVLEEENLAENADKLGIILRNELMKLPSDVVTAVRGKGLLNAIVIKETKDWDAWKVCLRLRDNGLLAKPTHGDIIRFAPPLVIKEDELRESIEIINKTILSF
Sequence of ATP synthase subunit b, mitochondrial precursor (P24539 43-256 limits assumed): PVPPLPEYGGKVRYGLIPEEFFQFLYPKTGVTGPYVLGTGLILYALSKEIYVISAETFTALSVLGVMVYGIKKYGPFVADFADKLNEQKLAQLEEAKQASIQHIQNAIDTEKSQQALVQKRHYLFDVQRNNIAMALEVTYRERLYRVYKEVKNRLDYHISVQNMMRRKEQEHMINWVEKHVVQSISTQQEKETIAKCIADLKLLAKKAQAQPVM
Sequence of ATP synthase subunit O, mitochondrial precursor (P48047 24-213 limits assumed): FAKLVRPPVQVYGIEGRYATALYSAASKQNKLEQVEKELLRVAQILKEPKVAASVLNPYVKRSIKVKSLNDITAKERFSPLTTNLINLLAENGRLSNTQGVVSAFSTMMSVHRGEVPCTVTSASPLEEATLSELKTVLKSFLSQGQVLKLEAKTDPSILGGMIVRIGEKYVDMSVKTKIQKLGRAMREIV
Sequence of ATP synthase subunit beta (P06576 48-529): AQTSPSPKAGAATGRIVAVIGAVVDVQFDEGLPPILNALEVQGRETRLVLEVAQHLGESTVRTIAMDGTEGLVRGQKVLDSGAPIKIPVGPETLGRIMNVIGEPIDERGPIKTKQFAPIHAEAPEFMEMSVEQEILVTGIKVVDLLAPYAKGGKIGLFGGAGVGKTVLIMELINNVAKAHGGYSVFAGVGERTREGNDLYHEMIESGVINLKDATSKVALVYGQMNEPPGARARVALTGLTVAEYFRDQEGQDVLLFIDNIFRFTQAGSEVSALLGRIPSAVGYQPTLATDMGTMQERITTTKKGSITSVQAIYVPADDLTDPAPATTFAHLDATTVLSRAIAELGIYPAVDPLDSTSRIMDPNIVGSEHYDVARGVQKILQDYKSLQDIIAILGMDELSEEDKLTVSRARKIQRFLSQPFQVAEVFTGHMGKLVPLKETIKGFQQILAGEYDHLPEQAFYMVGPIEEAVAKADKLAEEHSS
Sequence of ATP synthase subunit gamma, isoform L (P36542 26-298): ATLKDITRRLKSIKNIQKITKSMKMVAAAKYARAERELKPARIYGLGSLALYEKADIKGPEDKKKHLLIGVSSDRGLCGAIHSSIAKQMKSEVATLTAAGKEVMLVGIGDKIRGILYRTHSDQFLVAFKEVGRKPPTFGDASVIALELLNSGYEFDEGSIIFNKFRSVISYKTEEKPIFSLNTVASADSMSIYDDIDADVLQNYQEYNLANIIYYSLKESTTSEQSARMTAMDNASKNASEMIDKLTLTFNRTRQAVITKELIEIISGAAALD
Sequence of ATP synthase subunit g, mitochondrial (O75964 2-103): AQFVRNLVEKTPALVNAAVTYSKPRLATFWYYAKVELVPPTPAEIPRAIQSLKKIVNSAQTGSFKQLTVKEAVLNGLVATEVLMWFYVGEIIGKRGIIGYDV
Sequence of ATP synthase subunit alpha (P25705 44-553): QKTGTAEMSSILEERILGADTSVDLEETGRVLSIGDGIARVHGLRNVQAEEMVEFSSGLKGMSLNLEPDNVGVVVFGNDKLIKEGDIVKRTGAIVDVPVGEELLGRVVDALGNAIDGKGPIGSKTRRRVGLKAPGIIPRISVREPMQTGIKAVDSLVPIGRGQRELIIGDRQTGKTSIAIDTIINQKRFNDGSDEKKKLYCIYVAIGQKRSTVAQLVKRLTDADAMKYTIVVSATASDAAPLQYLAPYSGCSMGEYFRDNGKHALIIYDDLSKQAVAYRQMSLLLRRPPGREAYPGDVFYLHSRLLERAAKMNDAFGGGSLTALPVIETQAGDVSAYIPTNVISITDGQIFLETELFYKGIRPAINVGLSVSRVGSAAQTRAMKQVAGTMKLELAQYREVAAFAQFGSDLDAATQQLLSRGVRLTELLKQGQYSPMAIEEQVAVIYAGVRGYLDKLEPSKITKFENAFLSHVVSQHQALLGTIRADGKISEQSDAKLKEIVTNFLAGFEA
Sequence of 60 kDa heat shock protein, mitochondrial (P10809 27-573 limits assumed): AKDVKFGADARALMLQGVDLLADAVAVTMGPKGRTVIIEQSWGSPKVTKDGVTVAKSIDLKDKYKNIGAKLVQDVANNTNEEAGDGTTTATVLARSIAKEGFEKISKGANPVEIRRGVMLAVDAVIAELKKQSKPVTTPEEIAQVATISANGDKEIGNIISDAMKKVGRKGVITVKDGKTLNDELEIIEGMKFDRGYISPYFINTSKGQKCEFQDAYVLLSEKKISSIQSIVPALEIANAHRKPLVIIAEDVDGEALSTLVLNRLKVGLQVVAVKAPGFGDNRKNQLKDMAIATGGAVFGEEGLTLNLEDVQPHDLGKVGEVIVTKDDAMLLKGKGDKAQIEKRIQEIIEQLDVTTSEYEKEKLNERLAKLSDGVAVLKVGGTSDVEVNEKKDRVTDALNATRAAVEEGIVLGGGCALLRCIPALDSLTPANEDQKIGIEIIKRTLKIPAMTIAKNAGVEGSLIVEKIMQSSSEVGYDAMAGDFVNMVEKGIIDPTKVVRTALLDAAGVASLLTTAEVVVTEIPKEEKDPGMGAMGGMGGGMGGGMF
Sequence of mitochondrial-processing peptidase subunit alpha (Q10713 34-525 limits assumed): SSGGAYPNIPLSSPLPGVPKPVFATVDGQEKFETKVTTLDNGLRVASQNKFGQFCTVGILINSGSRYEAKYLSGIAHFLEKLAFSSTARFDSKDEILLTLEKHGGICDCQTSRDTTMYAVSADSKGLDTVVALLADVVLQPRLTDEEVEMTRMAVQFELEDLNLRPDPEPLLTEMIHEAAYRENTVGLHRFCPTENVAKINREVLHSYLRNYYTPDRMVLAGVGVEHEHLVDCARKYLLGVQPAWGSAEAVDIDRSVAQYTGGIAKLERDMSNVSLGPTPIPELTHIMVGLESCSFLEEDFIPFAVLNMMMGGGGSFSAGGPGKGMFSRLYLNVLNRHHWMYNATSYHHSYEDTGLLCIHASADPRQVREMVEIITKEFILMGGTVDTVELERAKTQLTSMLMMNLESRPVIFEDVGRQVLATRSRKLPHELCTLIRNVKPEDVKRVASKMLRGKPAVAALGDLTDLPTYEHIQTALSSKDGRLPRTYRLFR
Sequence of protein zyg-11 homolog B (Q9C0D3 whole entry): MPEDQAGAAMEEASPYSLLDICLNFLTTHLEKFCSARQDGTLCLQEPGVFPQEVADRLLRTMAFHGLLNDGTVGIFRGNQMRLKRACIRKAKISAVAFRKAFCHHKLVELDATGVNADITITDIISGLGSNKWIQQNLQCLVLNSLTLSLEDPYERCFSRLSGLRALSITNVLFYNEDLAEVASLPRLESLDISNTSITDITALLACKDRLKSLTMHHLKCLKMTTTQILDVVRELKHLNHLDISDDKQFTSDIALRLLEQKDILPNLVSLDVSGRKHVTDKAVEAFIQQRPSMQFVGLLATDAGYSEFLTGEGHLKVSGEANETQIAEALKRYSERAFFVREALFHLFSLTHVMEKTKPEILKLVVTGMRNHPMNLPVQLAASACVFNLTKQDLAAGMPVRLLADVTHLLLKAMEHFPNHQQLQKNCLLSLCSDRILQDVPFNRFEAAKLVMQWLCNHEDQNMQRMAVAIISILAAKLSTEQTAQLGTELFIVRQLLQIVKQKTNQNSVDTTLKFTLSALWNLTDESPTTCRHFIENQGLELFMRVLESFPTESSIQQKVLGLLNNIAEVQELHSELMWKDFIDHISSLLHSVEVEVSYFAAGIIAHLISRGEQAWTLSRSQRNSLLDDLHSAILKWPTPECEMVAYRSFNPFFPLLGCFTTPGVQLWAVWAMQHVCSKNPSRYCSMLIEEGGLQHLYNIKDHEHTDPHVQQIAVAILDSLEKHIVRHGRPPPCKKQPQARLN
Sequence of ATPase inhibitor, mitochondria; isoform 1 (Q9UII2 26-106): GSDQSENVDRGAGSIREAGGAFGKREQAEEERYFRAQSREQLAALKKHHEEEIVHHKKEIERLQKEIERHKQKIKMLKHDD
Sequence of ATP synthase subunit d, mitochondrial isoform a (O75947 2-161): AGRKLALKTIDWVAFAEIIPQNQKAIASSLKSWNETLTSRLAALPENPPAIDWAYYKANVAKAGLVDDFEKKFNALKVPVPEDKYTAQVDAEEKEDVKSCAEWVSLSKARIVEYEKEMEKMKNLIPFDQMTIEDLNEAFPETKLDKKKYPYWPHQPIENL

IP-MS count (kind of count not given) [1]: 15
IP-MS count (kind of count not given) [2]: 28
IP-MS count (kind of count not given) [3]: 44
IP-MS count (kind of count not given) [4]: 175
IP-MS count (kind of count not given) [5]: 17
IP-MS count (kind of count not given) [6]: 59
IP-MS count (kind of count not given) [7]: 14
IP-MS count (kind of count not given) [8]: 14
IP-MS count (kind of count not given) [9]: 26
IP-MS count (kind of count not given) [10]: 381
IP-MS count (kind of count not given) (protein zyg-11 homolog B [11]): 19
IP-MS count (kind of count not given) [12]: 375
IP-MS count (kind of count not given) [13]: 47
IP-MS count (kind of count not given) [14]: 16
Substance: Flag tagged ATPIF1 (from UniProt Q9UII2 26-106)

IP-MS count (kind of count not given) [15]: 5
IP-MS count (kind of count not given) [16]: 4
IP-MS count (kind of count not given) [17]: 3
IP-MS count (kind of count not given) [18]: 3
IP-MS count (kind of count not given) [19]: 0
IP-MS count (kind of count not given) [20]: 2
IP-MS count (kind of count not given) [21]: 0
IP-MS count (kind of count not given) [22]: 0
IP-MS count (kind of count not given) [23]: 1
IP-MS count (kind of count not given) [24]: 11
IP-MS count (kind of count not given) (protein zyg-11 homolog B [25]): 0
IP-MS count (kind of count not given) [26]: 7
IP-MS count (kind of count not given) [27]: 3
IP-MS count (kind of count not given) [28]: 1
Substance: FLAG-OMP25TM
